# Test results taken from doi:10.1101/2024.03.21.586151.
# Target: CaM(C110)D with an IAEDANS probe coupled to position 110 (UniProt P0DP23)
# Experiment: FRET or BRET
substance,measurement,value
CKIIp with a C-terminal Gly-Cys extension labeled with DDPM (peptide),"rate of FRET change after EGTA, fast phase (release of Ca^2+ from the N-domain)",5.8 s⁻¹
